How the values were obtained:
[1] = target: the molecule itself; assay: cross-linking; 10 ul with 12.5 mM Na phosphate pH 7.2, 12.5 mM NaCl, 2.5% glycerol, 1 x 10^-3% glutaraldehyde, 4 ug of protein; 15 min on ice; SDS-PAGE and Western blot with anti-His antibody
[2] = target: T1, RelA (Escherichia coli, full length, His-tagged) (Escherichia coli, UniProt P0AG20 1-744); assay: as above; conditions: both partners purified
T1 construct: RelA, (p)ppGpp synthetase of Escherichia coli, 84 kDa, 744 AA (NTD AAs 1-455, CTD AAs 405-744); also called WT RelA; WT-RelA; source: E. coli CF9467 (pQE30-relA), purified (Ni-NTA agarose); not shown: His6, N-terminal, kept
T1 sequence (looked up): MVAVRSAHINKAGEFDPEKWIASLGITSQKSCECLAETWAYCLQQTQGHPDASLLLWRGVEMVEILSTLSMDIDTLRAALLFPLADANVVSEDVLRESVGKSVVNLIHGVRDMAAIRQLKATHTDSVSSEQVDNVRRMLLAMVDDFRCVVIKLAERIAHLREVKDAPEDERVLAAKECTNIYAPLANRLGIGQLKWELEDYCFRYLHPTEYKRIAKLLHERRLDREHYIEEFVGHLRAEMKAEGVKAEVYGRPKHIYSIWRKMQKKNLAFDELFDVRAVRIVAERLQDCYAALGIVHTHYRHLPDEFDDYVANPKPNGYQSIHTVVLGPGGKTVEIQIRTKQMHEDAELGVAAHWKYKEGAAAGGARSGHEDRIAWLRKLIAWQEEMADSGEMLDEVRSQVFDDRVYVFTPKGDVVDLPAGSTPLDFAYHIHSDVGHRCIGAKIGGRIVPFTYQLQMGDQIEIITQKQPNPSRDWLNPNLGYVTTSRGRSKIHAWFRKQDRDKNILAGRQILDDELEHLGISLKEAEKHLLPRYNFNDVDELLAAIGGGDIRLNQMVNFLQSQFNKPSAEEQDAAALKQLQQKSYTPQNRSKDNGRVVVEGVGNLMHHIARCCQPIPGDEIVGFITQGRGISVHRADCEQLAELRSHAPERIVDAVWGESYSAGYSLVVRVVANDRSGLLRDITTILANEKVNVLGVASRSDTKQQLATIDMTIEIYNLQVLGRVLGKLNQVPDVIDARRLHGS

binding result [2]: binds
B1: YG4 (fragment of the RelA C-terminal domain, AA 564-744, His-tagged) (domain or fragment, Escherichia coli, UniProt P0AG20 564-744, looked up)
chain: FNKPSAEEQDAAALKQLQQKSYTPQNRSKDNGRVVVEGVGNLMHHIARCCQPIPGDEIVGFITQGRGISVHRADCEQLAELRSHAPERIVDAVWGESYSAGYSLVVRVVANDRSGLLRDITTILANEKVNVLGVASRSDTKQQLATIDMTIEIYNLQVLGRVLGKLNQVPDVIDARRLHGS
notes: RelA of Escherichia coli, AA 564-744 (MW 21 kDa); holds the RIS domain (AA 585-660) and the ACT domain (AA 665-744); also called native YG4; WT-YG4; source: E. coli CF9467 (pYG4), purified (Ni-NTA agarose); not shown: His6, N-terminal, kept
binding result [1]: binds
